Columns and labels:
[1] = molecular target: T1, Actin from rabbit skeletal muscle (F-actin) (rabbit, UniProt P68135 1-377); test: co-sedimentation; high-speed pelleting at 200,000 x g, 4 °C, 1 h; 8 µM G-actin polymerised with increasing Swip-1 in 1x KMEI (10 mM imidazole pH 7.0, 50 mM KCl, 1 mM MgCl2, 1 mM EGTA) for 2 h at 4 °C; absence of calcium; fit to independent, identical binding sites; details: both partners purified
[2] = molecular target: T1, Actin from rabbit skeletal muscle …; test: co-sedimentation; high-speed pelleting at 200,000 x g, 4 °C, 1 h; 8 µM G-actin polymerised with increasing Swip-1 in 1x KMI (10 mM imidazole pH 7.0, 50 mM KCl, 1 mM MgCl2) with 1 mM CaCl2 for 2 h at 4 °C; presence of calcium; fit to independent, identical binding sites; details: both partners purified

Kd [1]: 4300 ± 1300 nM
stoichiometry N [1]: ~1 Swip-1:actin
Kd [2]: 900 ± 100 nM
stoichiometry N [2]: ~0.5 Swip-1:actin
B1: Drosophila Swip-1 (EFhD2/Swip-1), recombinant wild type (natural protein)
chain: MSVSSNASSASNKDSVDSPSSTTNTDSSELTHILNRRQEIMESQEAGIEVRRTYKVVNVYTDFPEFSRNQIKDYQKTFNTYDTARDGFLDLQELKFMMEKLGAPQTHLGLKQMIAEVDEDNDGKISFREFLLIFRKAQAGELDSDSGLNQLARLTEVDVEQVGVSGAKNFFEAKIEQQLRTNKFHDEIRAEQEERRREEEERAQRRQQFQQRAAIFQ
notes: residues left after PreScission cleavage are not described; source: E. coli Rossetta 2, purified (glutathione agarose, GST cleaved by PreScission protease, size-exclusion chromatography)

— publication PMC9076686, “Calcium bursts allow rapid reorganization of EFhD2/Swip-1 cross-linked actin networks in epithelial wound closure” (Nature Communications, 2022)
